system: Escherichia coli TOP10; assay: shrunken log2 fold change of peptide-encoding DNA abundance (4.5 h post-induction vs induction); higher = less antimicrobial activity (less host growth inhibition); details: time post-induction: 4.5 h; library: site-saturation at positions 5, 18, 19, 20
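Also: peptides expressed intracellularly from a pBAD plasmid library in pooled LB shake-flask culture, induced with 0.3% L-arabinose, DNA abundance read by NGS, three biological replicates, DESeq2 with apeglm shrinkage.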

Sequence | shrunken log2 fold change
RRIRFRPPRLPRPRPRPEMCPRP | -0.0817
RRIRPRPPRLPRPRPRPGTLPRP | 0.0426
RRIRARPPRLPRPRPRPWHIPRP | 0.0256
RRIRERPPRLPRPRPRPHDAPRP | -0.437
RRIRQRPPRLPRPRPRPMTHPRP | -0.466
RRIRDRPPRLPRPRPRPWNRPRP | -0.339
RRIRTRPPRLPRPRPRPQFDPRP | -0.652
RRIRRRPPRLPRPRPRPCWWPRP | 0.261
RRIRYRPPRLPRPRPRPRYPPRP | -0.83
RRIRERPPRLPRPRPRPRFKPRP | 0.00602
RRIRKRPPRLPRPRPRPKYGPRP | -0.206
RRIRERPPRLPRPRPRPDWPPRP | 0.108
RRIRGRPPRLPRPRPRPLICPRP | 0.147
RRIRNRPPRLPRPRPRPKKRPRP | 0.201
RRIRIRPPRLPRPRPRPEACPRP | -0.064
RRIRQRPPRLPRPRPRPLEDPRP | 0.0428
RRIRYRPPRLPRPRPRPGKRPRP | -0.0167
RRIRLRPPRLPRPRPRPLWKPRP | -0.0337
RRIRTRPPRLPRPRPRPMIPPRP | -0.12
RRIRPRPPRLPRPRPRPFAHPRP | -0.124
RRIRERPPRLPRPRPRPHGHPRP | 0.0257
RRIRFRPPRLPRPRPRPIFTPRP | -0.128
RRIRCRPPRLPRPRPRPWQCPRP | -0.0231
RRIRERPPRLPRPRPRPKYHPRP | -0.57
RRIRRRPPRLPRPRPRPFASPRP | -0.0314

Sequence | shrunken log2 fold change
RRIRGRPPRLPRPRPRPRGCPRP | 1.37
RRIRIRPPRLPRPRPRPHHEPRP | -0.0701
RRIRCRPPRLPRPRPRPLEKPRP | -0.072
RRIRNRPPRLPRPRPRPRCEPRP | 0.357
RRIRLRPPRLPRPRPRPNASPRP | 0.0769
RRIRCRPPRLPRPRPRPHKQPRP | -0.0354
RRIRGRPPRLPRPRPRPMHRPRP | 0.405
RRIRLRPPRLPRPRPRPYEAPRP | -1.12
RRIRFRPPRLPRPRPRPHHQPRP | -0.963
RRIRQRPPRLPRPRPRPFCSPRP | 0.036
RRIRGRPPRLPRPRPRPVWTPRP | 0.674
RRIRCRPPRLPRPRPRPYKDPRP | -0.492
RRIRVRPPRLPRPRPRPYSWPRP | -0.163
RRIRGRPPRLPRPRPRPTTQPRP | 0.429
RRIRTRPPRLPRPRPRPMLEPRP | 0.018
RRIRKRPPRLPRPRPRPPPDPRP | 0.906
RRIRQRPPRLPRPRPRPWGTPRP | -0.239
RRIRERPPRLPRPRPRPIIVPRP | -0.149
RRIRWRPPRLPRPRPRPEMWPRP | 1.05
RRIRPRPPRLPRPRPRPLVGPRP | 0.408
RRIRKRPPRLPRPRPRPLFTPRP | 0.331
RRIRFRPPRLPRPRPRPKTQPRP | 0.397
RRIRFRPPRLPRPRPRPHYPPRP | -0.178
RRIRFRPPRLPRPRPRPDSHPRP | -0.495
RRIRHRPPRLPRPRPRPPQMPRP | 0.149

Sequence | shrunken log2 fold change
RRIRPRPPRLPRPRPRPPPRPRP | 0.91
RRIRVRPPRLPRPRPRPRPEPRP | 0.609
RRIRLRPPRLPRPRPRPVGMPRP | -0.0033
RRIRERPPRLPRPRPRPEIIPRP | 0.0655
RRIRSRPPRLPRPRPRPCGFPRP | -0.0141
RRIRCRPPRLPRPRPRPPREPRP | 1.1
RRIRLRPPRLPRPRPRPYQQPRP | -0.18
RRIRNRPPRLPRPRPRPKVGPRP | 0.148
RRIRPRPPRLPRPRPRPQTIPRP | -0.0413
RRIRTRPPRLPRPRPRPTNQPRP | -0.067
RRIRFRPPRLPRPRPRPCPNPRP | 0.044
RRIRYRPPRLPRPRPRPCCTPRP | -0.418
RRIRQRPPRLPRPRPRPMFDPRP | -0.109
RRIRFRPPRLPRPRPRPQLNPRP | -0.53
RRIRMRPPRLPRPRPRPKHIPRP | -0.0498
RRIRCRPPRLPRPRPRPIRAPRP | -0.0291
RRIRCRPPRLPRPRPRPDDMPRP | -0.477
RRIRERPPRLPRPRPRPHFDPRP | -0.14
RRIRTRPPRLPRPRPRPDQKPRP | -0.056
RRIRARPPRLPRPRPRPKLLPRP | 0.00678
RRIRWRPPRLPRPRPRPGNLPRP | -0.00261
RRIRKRPPRLPRPRPRPAVYPRP | -0.0285
RRIRERPPRLPRPRPRPEPIPRP | -0.00736
RRIRARPPRLPRPRPRPTFHPRP | 0.177
RRIRFRPPRLPRPRPRPTPVPRP | 0.706

Source: the supplement of paper PMC9112550, “Optimization of the antimicrobial peptide Bac7 by deep mutational scanning” (BMC Biology, 2022)
